Where no end group is shown, it is not given here.
B1: Phage-3820 (peptide)
peptide: LLERCVPSWMCLGF
B2: Phage-3817 (peptide)
peptide: ATVVCSPPWMCTGF
B3: Phage-3799 (peptide)
peptide: LELACRPMWMCQGF
notes: Clone of the Peptide-180 optimisation library, tested as clonal phage supernatant
B4: Phage-3815 (peptide)
peptide: ASISCIPDWMCHGF
B5: Phage-3797 (peptide)
peptide: VEYLCKPVWMCQGF
notes: as for B3
B6: Phage-3798 (peptide)
peptide: MSMYCVPTWMCNGF
notes: as for B3
B7: Phage-3832 (peptide)
peptide: TSVLCQPLWMCSGF
B8: Phage-3822 (peptide)
peptide: QEPVCRPAWMCSGF
B9: Phage-3830 (peptide)
peptide: PPRACVPSWMCTGF
B10: Phage-3818 (peptide)
peptide: ENAKCSPAWMCVGF
B11: Phage-3811 (Peptide-180 library clone, SEQ ID NO: 4127) (peptide)
peptide: SFQRCEPEWMCYGF
notes: Tested as clonal phage supernatant; not shown: pIII coat protein of the bacteriophage to which the peptide is fused
B12: Phage-3808 (Peptide-180 library clone, SEQ ID NO: 4124) (peptide)
peptide: LGVQCKPTWMCQGF
notes: as for B11
B13: Phage-3816 (peptide)
peptide: LDLSCVPAWMCTGF
B14: Phage-3802 (Peptide-180 library clone, SEQ ID NO: 4118) (peptide)
peptide: EVLRCVPRWMCEKF
notes: as for B11
B15: Phage-3809 (Peptide-180 library clone, SEQ ID NO: 4125) (peptide)
peptide: DARLCKPTWMCMGL
notes: as for B11
B16: Phage-3819 (peptide)
peptide: VHIMCVPPWMCERF
B17: Phage-3806 (Peptide-180 library clone, SEQ ID NO: 4122) (peptide)
peptide: DQAACVPAWMCTGF
notes: as for B11
B18: Phage-3804 (Peptide-180 library clone, SEQ ID NO: 4120) (peptide)
peptide: IRALCEPSWMCTGF
notes: as for B11
B19: Phage-3800 (Peptide-180 library clone, SEQ ID NO: 4116) (peptide)
peptide: LELLCRPSWMCEGF
modifications: cysteine pairing not given here; also: displayed on phage as fusion to pIII, junction not given here
notes: as for B11
B20: Phage-3829 (peptide)
peptide: PEIRCAPLWMCVGF
B21: Phage-3813 (Peptide-180 library clone, SEQ ID NO: 4129) (peptide)
peptide: YTAMCVPVWMCNVL
modifications: cysteine pairing not given here; also: displayed on phage as fusion to pIII, junction not given here
notes: as for B11
B22: Phage-3803 (Peptide-180 library clone, SEQ ID NO: 4119) (peptide)
peptide: GGPMCKPVWMCQGF
notes: as for B11
B23: Phage-3821 (peptide)
peptide: PQIWCVPTWMCAAS
modifications: cysteine pairing not given here; also: displayed on phage as fusion to pIII, junction not given here
B24: Phage-3831 (peptide)
peptide: GMKTCVPAWMCVGF
B25: Phage-3795 (peptide)
peptide: DLIYCRPAWMCDGF
notes: as for B3
B26: Phage-3812 (Peptide-180 library clone, SEQ ID NO: 4128) (peptide)
peptide: AYPMCSPAWMCAGF
modifications: cysteine pairing not given here; also: displayed on phage as fusion to pIII, junction not given here
notes: as for B11
B27: Phage-3826 (peptide)
peptide: VQHWCVPAWMCYGL
B28: Phage-3823 (peptide)
peptide: QVKYCEPQWMCAGL
modifications: cysteine pairing not given here; also: displayed on phage as fusion to pIII, junction not given here
B29: Phage-3814 (peptide)
peptide: EFKWCVPDWMCYGV
modifications: cysteine pairing not given here; also: displayed on phage as fusion to pIII, junction not given here
B30: Phage-3810 (Peptide-180 library clone, SEQ ID NO: 4126) (peptide)
peptide: GDQMCIPLWMCEGF
notes: as for B11
B31: Phage-3794 (peptide)
peptide: TVKQCVPEWMCVML
notes: as for B3
B32: Phage-3801 (Peptide-180 library clone, SEQ ID NO: 4117) (peptide)
peptide: EWLVCKPAWMCLGL
notes: as for B11
B33: Phage-3824 (peptide)
peptide: EAPYCRPSWMCAGF
modifications: cysteine pairing not given here; also: displayed on phage as fusion to pIII, junction not given here
B34: Phage-3805 (Peptide-180 library clone, SEQ ID NO: 4121) (peptide)
peptide: HMIHCVPDWMCEGF
notes: as for B11
B35: Phage-3827 (peptide)
peptide: VDRMCVPPWMCDVL
B36: Phage-3793 (peptide)
peptide: FAFDCVPKWMCTGF
notes: as for B3
B37: Phage-3828 (peptide)
peptide: IDRHCIPAWMCEQF
B38: Phage-3807 (Peptide-180 library clone, SEQ ID NO: 4123) (peptide)
peptide: VVSHCKPIWMCSGF
notes: as for B11
B39: Phage-3825 (peptide)
peptide: PGMVCKPSWMCSHL
B40: Phage-3796 (peptide)
peptide: MERSCIPDWMCLGF
notes: as for B3

How the values were obtained:
PSMA Fab (006 PSMA Fab) [1] = molecular target: T1, PSMA Fab (006 PSMA Fab); assay: clonal phage ELISA on biotinylated PSMA Fab captured on neutravidin plates, anti-M13-HRP detection;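 also: crude clonal phage supernatants added to wells preincubated with PSMA antigen or with blocking buffer only (no wash between), briefly incubated, then washed before detecting bound phage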
T1 construct: also called Anti-PSMA Fab
Description: (§1) Clonal phage were harvested as crude supernatants and screened via standard ELISAs. […] Prior to the addition of clonal phage. wells were incubated with blocking buffer and PSMA antigen or blocking buffer alone. Without washing or aspirating, clonal phage supernatants were then added to the wells and incubated for a short time. Wells were then washed followed by detection of bound phage using a horse radish conjugated anti-M13 antibody.

PSMA Fab (006 PSMA Fab) [2] = molecular target: T1, PSMA Fab (006 PSMA Fab); assay: clonal phage ELISA on captured PSMA Fab pre-incubated with PSMA antigen as competitor, anti-M13-HRP detection;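 also: wells blocked with buffer plus PSMA antigen before phage addition, with blocking buffer alone as the no-competitor control, bound phage detected after washing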
Description: as §1

Anti-PSMA Fab [3] = molecular target: T2, Anti-PSMA Fab; assay: clonal phage ELISA on biotinylated PSMA Fab captured on neutravidin plates, anti-M13-HRP detection;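 also: crude clonal phage supernatants added to wells preincubated with PSMA antigen or with blocking buffer only (no wash between), briefly incubated, then washed before detecting bound phage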
T2 construct: also called 006 PSMA Fab
Description: as §1

Anti-PSMA Fab [4] = molecular target: T2, Anti-PSMA Fab; assay: clonal phage ELISA on captured PSMA Fab, wells pre-incubated with PSMA antigen as competitor, anti-M13-HRP detection;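 also: crude clonal phage supernatants added without washing after the PSMA preincubation, comparison wells received blocking buffer alone without PSMA, bound phage read after washing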
Description: as §1

PSMA Fab (006 PSMA Fab) [5] = molecular target: T3, PSMA Fab (006 PSMA Fab) (biotinylated (site not stated)); assay: clonal phage ELISA on plate-captured biotinylated PSMA Fab, blocking buffer alone, anti-M13 HRP detection
T3 construct: also called Anti-PSMA Fab

PSMA Fab (006 PSMA Fab) [6] = molecular target: T3, PSMA Fab (006 PSMA Fab); assay: clonal phage ELISA on plate-captured biotinylated PSMA Fab pre-incubated with PSMA antigen as competitor, anti-M13 HRP detection
Description: as §1

[7] = molecular target: T4, PSMA Fab (SEQ ID NOs: 19, 20); assay: clonal phage ELISA; biotinylated PSMA Fab captured on neutravidin plate, bound phage detected with anti-M13-HRP
T4 construct: also called Anti-PSMA Fab; 006 PSMA Fab
Description: as §1

[8] = molecular target: T4, PSMA Fab (SEQ ID NOs: 19, 20); assay: clonal phage ELISA; captured biotinylated PSMA Fab pre-incubated with PSMA antigen as competitor, anti-M13-HRP detection
Description: as §1

Row | Binder | Phage binding ELISA signal, Anti-PSMA Fab (PSMA Fab (006 PSMA Fab) [1]) | Phage binding ELISA signal, Anti-PSMA Fab with PSMA antigen (PSMA Fab (006 PSMA Fab) [2]) | Phage binding ELISA signal, Anti-PSMA Fab [7] | Phage binding ELISA signal, Anti-PSMA Fab with PSMA antigen [8] | other results
1 | B1 | 1.26 | 0.102 | – | – | –
2 | B2 | 1.27 | 0.0662 | – | – | –
3 | B3 | – | – | – | – | Phage binding ELISA signal, Anti-PSMA Fab (Anti-PSMA Fab [3]): 1.31; Phage binding ELISA signal, Anti-PSMA Fab with PSMA antigen (Anti-PSMA Fab [4]): 0.0709
4 | B4 | 1.28 | 0.0872 | – | – | –
5 | B5 | – | – | – | – | Phage binding ELISA signal, Anti-PSMA Fab (Anti-PSMA Fab [3]): 1.31; Phage binding ELISA signal, Anti-PSMA Fab with PSMA antigen (Anti-PSMA Fab [4]): 0.0609
6 | B6 | – | – | – | – | Phage binding ELISA signal, Anti-PSMA Fab (Anti-PSMA Fab [3]): 1.31; Phage binding ELISA signal, Anti-PSMA Fab with PSMA antigen (Anti-PSMA Fab [4]): 0.0602
7 | B7 | – | – | – | – | Phage binding ELISA signal, Anti-PSMA Fab (PSMA Fab (006 PSMA Fab) [5]): 1.24; Phage binding ELISA signal, Anti-PSMA Fab in presence of PSMA (PSMA Fab (006 PSMA Fab) [6]): 0.0785
8 | B8 | 1.26 | 0.0764 | – | – | –
9 | B9 | – | – | – | – | Phage binding ELISA signal, Anti-PSMA Fab (PSMA Fab (006 PSMA Fab) [5]): 1.24; Phage binding ELISA signal, Anti-PSMA Fab in presence of PSMA (PSMA Fab (006 PSMA Fab) [6]): 0.0854
10 | B10 | 1.27 | 0.0752 | – | – | –
11 | B11 | – | – | 1.29 | 0.0768 | –
12 | B12 | – | – | 1.29 | 0.0911 | –
13 | B13 | 1.28 | 0.0963 | – | – | –
14 | B14 | – | – | 1.3 | 0.0658 | –
15 | B15 | – | – | 1.29 | 0.0886 | –
16 | B16 | 1.27 | 0.0664 | – | – | –
17 | B17 | – | – | 1.3 | 0.117 | –
18 | B18 | – | – | 1.3 | 0.0766 | –
19 | B19 | – | – | 1.3 | 0.0665 | –
20 | B20 | – | – | – | – | Phage binding ELISA signal, Anti-PSMA Fab (PSMA Fab (006 PSMA Fab) [5]): 1.24; Phage binding ELISA signal, Anti-PSMA Fab in presence of PSMA (PSMA Fab (006 PSMA Fab) [6]): 0.0725

Row | Binder | Phage binding ELISA signal, Anti-PSMA Fab (PSMA Fab (006 PSMA Fab) [1]) | Phage binding ELISA signal, Anti-PSMA Fab with PSMA antigen (PSMA Fab (006 PSMA Fab) [2]) | Phage binding ELISA signal, Anti-PSMA Fab [7] | Phage binding ELISA signal, Anti-PSMA Fab with PSMA antigen [8] | other results
21 | B21 | – | – | 1.29 | 0.0695 | –
22 | B22 | – | – | 1.3 | 0.0735 | –
23 | B23 | 1.26 | 0.0743 | – | – | –
24 | B24 | – | – | – | – | Phage binding ELISA signal, Anti-PSMA Fab (PSMA Fab (006 PSMA Fab) [5]): 1.24; Phage binding ELISA signal, Anti-PSMA Fab in presence of PSMA (PSMA Fab (006 PSMA Fab) [6]): 0.08
25 | B25 | – | – | – | – | Phage binding ELISA signal, Anti-PSMA Fab (Anti-PSMA Fab [3]): 1.31; Phage binding ELISA signal, Anti-PSMA Fab with PSMA antigen (Anti-PSMA Fab [4]): 0.0679
26 | B26 | – | – | 1.29 | 0.0779 | –
27 | B27 | 1.24 | 0.107 | – | – | –
28 | B28 | 1.25 | 0.0788 | – | – | –
29 | B29 | 1.29 | 0.0589 | – | – | –
30 | B30 | – | – | 1.29 | 0.106 | –
31 | B31 | – | – | – | – | Phage binding ELISA signal, Anti-PSMA Fab (Anti-PSMA Fab [3]): 1.31; Phage binding ELISA signal, Anti-PSMA Fab with PSMA antigen (Anti-PSMA Fab [4]): 0.104
32 | B32 | – | – | 1.3 | 0.0609 | –
33 | B33 | 1.25 | 0.0837 | – | – | –
34 | B34 | – | – | 1.3 | 0.0847 | –
35 | B35 | 1.24 | 0.0859 | – | – | –
36 | B36 | – | – | – | – | Phage binding ELISA signal, Anti-PSMA Fab (Anti-PSMA Fab [3]): 1.31; Phage binding ELISA signal, Anti-PSMA Fab with PSMA antigen (Anti-PSMA Fab [4]): 0.0829
37 | B37 | – | – | – | – | Phage binding ELISA signal, Anti-PSMA Fab (PSMA Fab (006 PSMA Fab) [5]): 1.24; Phage binding ELISA signal, Anti-PSMA Fab in presence of PSMA (PSMA Fab (006 PSMA Fab) [6]): 0.0571
38 | B38 | – | – | 1.29 | 0.083 | –
39 | B39 | 1.25 | 0.107 | – | – | –
40 | B40 | – | – | – | – | Phage binding ELISA signal, Anti-PSMA Fab (Anti-PSMA Fab [3]): 1.31; Phage binding ELISA signal, Anti-PSMA Fab with PSMA antigen (Anti-PSMA Fab [4]): 0.0541

Source: patent US20260242478A1 (published 2026)
